The record followed here is article doi:10.1101/2020.05.18.102780.

The assay deals with Ktedonobacter racemifer acyl carrier protein (KrACP) (Ktedonobacter racemifer DSM 44963). Nature of the assay: SDS-PAGE.

In general, stoichiometry N refers to the number of molecules, sites or subunits per partner or assembly. Take “Ktedonobacter racemifer acyl carrier protein (KrACP) (natural protein)”: the stoichiometry N worked out at 2.
